Values joined by “and” are separate entries in the source; they are usually repeats but may differ in a detail not shown here. Equal values may be shown once.

Results on 2 substances are retold here after US20220175647A1, “COSMETIC PREPARATION CONTAINING ULTRAVIOLET WAVELENGTH CONVERSION MATERIAL AND WATER-SOLUBLE THICKENING AGENT” (Shiseido Company, Ltd., priority 2019, published 2022).

The nature of series [1]: Absorption and emission spectrum peak wavelengths of UV wavelength conversion substances. Format: physicochemical.
For series [2], the system named is Human dermal fibroblasts. Briefly: Cell activity (AlamarBlue) of cells UV-irradiated through a solution of UV wavelength conversion substance. Particulars: UV 0 to 100 mJ/cm^2, FIG. 3. Type of series: cell-based. On the procedure:
The UV wavelength conversion substances (3) and (4) were dispersed in alcohol to prepare 5% and 10% dispersions.
(§1) 1. Human dermal fibroblasts and human skin keratinocytes purchased from Kurabo Industries Ltd. were used. A cell suspension (1 mL) stored in liquid nitrogen was thawed in a water bath (37° C.) to an extent that small ice pellets remained, and then diluted with 9 mL of warm medium. 2. The diluted suspension was mixed gently and then transferred to a T75 flask and incubated overnight at 37° C. 3. The next day, the medium was replaced with 10 mL of fresh medium. 4. The medium was replaced periodically (once every 2 days for fibroblasts and once every 2 to 3 days for keratinocytes) and cell proliferation was continued. Meanwhile, the cells were observed using a microscope, and it was confirmed that the cells grew in the correct form. 5. After the cells reached about 80% confluence, the cells were passaged. The cells were passaged by washing the cells once with 10 mL of warm PBS, adding 5 mL of warm trypsin to a T75 flask, covering the bottom of the flask with a trypsin solution, followed by aspirating at room temperature for 1 minute. 6. The flask was allowed to stand in an oven at 37° C. for (maximum) 2 minutes for fibroblasts and (maximum) 7 minutes for keratinocytes. The cells were observed using a microscope and confirmed to be small and oval. 7. […]

Series [3] relates to Human dermal fibroblasts. Briefly: Restoration of cell activity decreased by prior UV irradiation (AlamarBlue). Type of series: cell-based. Particulars: pre-irradiation 400 mJ/cm^2 without substance, then UV 0 to 200 mJ/cm^2 through 0.4% or 2% C-phycocyanin; effect equivalent at both concentrations; FIG. 5. On the procedure:
as §1, with “7. Thereafter, the side of the T75 flask was lightly tapped to release the cells.” for “7.”
(The colour change of resazurin is a common sign of viable cells or microbes.)

On to B-phycoerythrin, for which, in series [1], the “absorption spectrum peak wavelength” value turned out to be 305 nm; the “emission spectrum peak wavelength” value was 570 nm and 610 nm.
Turning to C-phycocyanin, the “cell activity (relative fluorescence intensity, AlamarBlue)” value in the series on Human dermal fibroblasts [2] (0.4% C-phycocyanin solution) is listed as “the decrease in cell activity was suppressed”. Moreover, the “cell activity (relative fluorescence intensity, AlamarBlue)” value in the series on Human dermal fibroblasts [2] (2% C-phycocyanin solution, compared to no UV irradiation) is “the cell activity was even increased”. For the same substance, the “cell activity after activity was once decreased by UV” value in the series on Human dermal fibroblasts [3] is “cell activity was recovered”. For the same substance, in series [1], the “absorption spectrum peak wavelength” value turned out to be 350 nm; the “emission spectrum peak wavelength” value was 640 nm and 700 nm.
